Where a chain is given by its changes, count along the chain named.
Key:
Assay in all cases: cleavage_in_vitro
[1] = target: T1, BamHI (Bacillus amyloliquefaciens) (UniProt P23940); settings: NEB4, 37 C, Mg2+; FI NEB1-3: 4, 4, 32
T1 sequence: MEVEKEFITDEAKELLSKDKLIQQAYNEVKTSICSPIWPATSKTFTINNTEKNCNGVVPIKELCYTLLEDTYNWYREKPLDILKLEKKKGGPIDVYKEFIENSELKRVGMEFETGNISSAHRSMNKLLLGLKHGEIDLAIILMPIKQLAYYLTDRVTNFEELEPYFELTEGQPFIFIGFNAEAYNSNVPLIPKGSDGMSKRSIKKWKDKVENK

[2] = target: T2, BamHI-HF E163A/E167T (Bacillus amyloliquefaciens) (UniProt P23940); settings: NEB4, 37 C, Mg2+; FI NEB1-3: >=4000, >=4000, >=250
T2 sequence: T1 sequence with E163A, E167T

[3] = target: EcoRI-HF K62E (Escherichia coli RY13) (UniProt P00642); settings: NEB4, 37 C, Mg2+; FI NEB1-3: 2000, 4000, 250
[4] = tested on: T3, NcoI (Nocardia corallina); settings: NEB4, 37 C, Mg2+; FI NEB1-3: 120, 32, 120
T3 sequence: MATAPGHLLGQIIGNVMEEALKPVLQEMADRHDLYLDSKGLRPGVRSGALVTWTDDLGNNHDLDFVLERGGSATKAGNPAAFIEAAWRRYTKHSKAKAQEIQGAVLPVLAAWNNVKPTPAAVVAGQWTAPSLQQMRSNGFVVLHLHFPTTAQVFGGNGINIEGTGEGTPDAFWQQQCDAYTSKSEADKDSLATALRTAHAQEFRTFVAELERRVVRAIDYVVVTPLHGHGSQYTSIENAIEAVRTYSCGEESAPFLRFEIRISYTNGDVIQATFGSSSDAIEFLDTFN

[5] = target: T4, PstI (Providencia stuartii 164) (UniProt P00640); settings: NEB4, 37 C, Mg2+; FI NEB1-3: 64, 32, 120
T4 sequence: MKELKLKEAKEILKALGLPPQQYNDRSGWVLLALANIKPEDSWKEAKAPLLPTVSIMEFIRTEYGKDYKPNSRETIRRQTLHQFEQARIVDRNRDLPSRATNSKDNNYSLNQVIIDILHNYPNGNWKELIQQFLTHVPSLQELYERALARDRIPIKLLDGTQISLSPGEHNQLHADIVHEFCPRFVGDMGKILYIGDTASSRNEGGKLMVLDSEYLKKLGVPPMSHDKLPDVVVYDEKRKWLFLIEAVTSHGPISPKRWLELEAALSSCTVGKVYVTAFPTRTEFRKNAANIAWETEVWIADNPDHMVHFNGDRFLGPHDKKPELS

[6] = tested on: T5, SphI-HF K100A (Streptomyces phaeochromogenes); settings: NEB4, 37 C, Mg2+; FI NEB1-3: 4000, 2000, 250
T5 sequence: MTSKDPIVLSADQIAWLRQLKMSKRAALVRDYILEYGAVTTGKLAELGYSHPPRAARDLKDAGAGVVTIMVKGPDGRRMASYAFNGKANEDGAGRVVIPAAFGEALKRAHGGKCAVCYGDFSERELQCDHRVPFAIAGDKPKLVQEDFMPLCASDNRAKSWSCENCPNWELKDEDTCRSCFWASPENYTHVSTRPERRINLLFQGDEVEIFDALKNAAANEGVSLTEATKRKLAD

[7] = target: EcoRI (Escherichia coli RY13) (UniProt P00642); settings: NEB4, 37 C, Mg2+; FI NEB1-3: 250, 4, 250
[8] = tested on: T6, SapI (Saccharopolyspora sp.); settings: NEB4, 37 C, Mg2+; FI NEB1-3: 16, 64, 32
T6 sequence: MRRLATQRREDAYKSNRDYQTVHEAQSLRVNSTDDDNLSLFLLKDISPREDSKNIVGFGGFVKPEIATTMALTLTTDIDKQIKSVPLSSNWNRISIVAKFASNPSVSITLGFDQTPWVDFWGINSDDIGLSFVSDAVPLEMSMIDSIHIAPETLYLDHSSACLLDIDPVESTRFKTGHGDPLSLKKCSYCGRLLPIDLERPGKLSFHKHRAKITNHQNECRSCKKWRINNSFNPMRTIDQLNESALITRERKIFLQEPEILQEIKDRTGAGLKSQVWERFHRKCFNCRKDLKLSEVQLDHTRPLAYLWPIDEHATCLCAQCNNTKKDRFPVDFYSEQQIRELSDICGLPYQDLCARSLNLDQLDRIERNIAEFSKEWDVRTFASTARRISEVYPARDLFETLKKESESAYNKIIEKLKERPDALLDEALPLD

lambda phage DNA
activity (fidelity index) [1]: 4 | activity (fidelity index) [2]: > 4000 | activity (fidelity index) [3]: 16000 | activity (fidelity index) [4]: 32 | activity (fidelity index) [5]: 8 | activity (fidelity index) [6]: 8000 | activity (fidelity index) [7]: 4 | activity (fidelity index) [8]: 16

Reference: patent US20130115678
